In the data set the target is prostate-specific antigen (PSA) (human (semen), UniProt P07288 25-261). Description: electrochemical aptasensor (DPV); MCH-blocked MWCNT/AuNP electrode; LoD 1 pg/mL, linear 1-100 ng/mL (abstract) or 0.001-100 ng/mL (Table 2); PBS pH 7.2, [Fe(CN)6]3-/4- redox probe, 5 min binding; aptamer heated to 95 C and cooled, immobilized at room temperature with MgCl2 and NaCl; binding temperature not stated. As to conditions: protein: commercial.
Sequence of prostate-specific antigen (PSA) (P07288 25-261): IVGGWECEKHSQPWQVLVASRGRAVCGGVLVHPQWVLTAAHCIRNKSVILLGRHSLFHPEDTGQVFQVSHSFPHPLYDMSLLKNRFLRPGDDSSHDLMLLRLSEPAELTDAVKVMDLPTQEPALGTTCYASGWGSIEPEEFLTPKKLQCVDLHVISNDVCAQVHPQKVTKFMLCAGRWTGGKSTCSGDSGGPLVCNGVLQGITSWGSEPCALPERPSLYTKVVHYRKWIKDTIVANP

Consider TTTTTAATTAAAGCTCGCCATCAAATAGCTTT (ssDNA, 5'-HS-(CH2)6 thiol) [PSA aptamer], for which the binding result was “binds”.

The record behind these values is paper PMC9776393, “Gold Nanoparticles-MWCNT Based Aptasensor for Early Diagnosis of Prostate Cancer”.
